From the supplement of paper PMC10126150
± gives the standard deviation of the averaged measurements.

Tested on: ATP
Assay: switch fluorescence ratio, 500 uM ATP over buffer (Cy3 cluster intensity, sum of 5 cycles each) (fold (ratio)); higher = stronger signal-on switching upon ATP binding; sequences stand for … in TCGTCGGCAGCGTCAGATGTGTATAAGAGACAGTTTTTTTTTTTTTTTTTTTTTTTTT…TC
Details: aptamer strand: ATP DNA aptamer (quencher-CACCTGGGGGAGTATTGCGGAGGAAGG + anchor), 100 nM annealed; ATP concentration: 500 uM
In short: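 Between each of five buffer/ATP cycles, the flow-cell was stripped with NaOH and re-annealed. Each cycle imaged Cy3-labelled switching-strand clusters, annealed to 100 nM quencher-labelled ATP aptamer on a modified Illumina MiSeq flow-cell, first in selection buffer and then after 15 min with 500 uM ATP at 22 °C. The fluorescence ratio is summed target-cycle over summed buffer-cycle Cy3 intensity per cluster, averaged per switch-domain sequence, with clusters outside 100-1000 RFU excluded.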
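Also: ATP exposure 15 min at 22 °C before imaging.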

Q: How did the switch fluorescence ratio turn out when AAGGGTTATT was run?
A: 1.15 ± 0.16

Q: How did the switch fluorescence ratio turn out when ACGCCTTATT was run?
A: 1.03 ± 0.02

Q: ACTAAGAGTT was tested. Which switch fluorescence ratio did it give?
A: 1.03 ± 0.056

Q: GATGATCACA was tested. Which switch fluorescence ratio did it give?
A: 0.951 ± 0.036

Q: GTTCTGAGGT was tested. Which switch fluorescence ratio did it give?
A: 1 ± 0.0014

Q: How did the switch fluorescence ratio turn out when AAGCTCCTTT was run?
A: 0.968 ± 0.011

Q: AGATCTAAGG was tested. Which switch fluorescence ratio did it give?
A: 1 ± 0.019

Q: With TGGCGGGGAG as the sequence, how does the switch fluorescence ratio read?
A: 0.998 ± 0.021

Q: How did the switch fluorescence ratio turn out when TAAGATTCGT was run?
A: 1 ± 0.031

Q: TGATGTGGTG was tested. Which switch fluorescence ratio did it give?
A: 0.976 ± 0.018

Q: With TTCGCATCTA as the sequence, how does the switch fluorescence ratio read?
A: 1.15 ± 0.056

Q: With CAGACGTAGG as the sequence, how does the switch fluorescence ratio read?
A: 1.01 ± 0.056

Q: How did the switch fluorescence ratio turn out when GGGCTTGGGT was run?
A: 1.08 ± 0.12

Q: For CATGTCGGCA, which switch fluorescence ratio is on record?
A: 1 ± 0.019

Q: GGTCGTGGCA was tested. Which switch fluorescence ratio did it give?
A: 0.969 ± 0.028

Q: Which switch fluorescence ratio does the source give for TGGTAGGTGA here?
A: 0.997 ± 0.025

Q: TTTTGGGAAA was tested. Which switch fluorescence ratio did it give?
A: 0.989 ± 0.044

Q: How did the switch fluorescence ratio turn out when TAGATGCAGT was run?
A: 1.04 ± 0.042

Q: For ACTGAGGGGA, which switch fluorescence ratio is on record?
A: 1 ± 0.08

Q: How did the switch fluorescence ratio turn out when CTCAGCAGGG was run?
A: 1.73 ± 0.17

Q: How did the switch fluorescence ratio turn out when TAAGGCTTCG was run?
A: 0.96 ± 0.039

Q: With AAAACGGCGT as the sequence, how does the switch fluorescence ratio read?
A: 0.959 ± 0.01

Q: For TATTAAACGA, which switch fluorescence ratio is on record?
A: 1.019 ± 0.0063

Q: Which switch fluorescence ratio does the source give for AGCTATGTGG here?
A: 0.9812 ± 0.0064

Q: TGGGTTGGAG was tested. Which switch fluorescence ratio did it give?
A: 0.9949 ± 0.0067

Q: For CGATCCCATT, which switch fluorescence ratio is on record?
A: 1.05 ± 0.037

Q: How did the switch fluorescence ratio turn out when ACCGTTCACG was run?
A: 1.02 ± 0.031

Q: How did the switch fluorescence ratio turn out when ATTTAAGTGC was run?
A: 0.981 ± 0.049

Q: Which switch fluorescence ratio does the source give for TTGGCCATGA here?
A: 0.976 ± 0.029

Q: With CCATTTGACC as the sequence, how does the switch fluorescence ratio read?
A: 1.04 ± 0.014

Q: With CGTTCTATTC as the sequence, how does the switch fluorescence ratio read?
A: 1.11 ± 0.17

Q: GAAATTGTTT was tested. Which switch fluorescence ratio did it give?
A: 0.991 ± 0.015

Q: How did the switch fluorescence ratio turn out when GGACTATGCG was run?
A: 0.985 ± 0.032

Q: Which switch fluorescence ratio does the source give for TTAAATGGG here?
A: 0.9799 ± 0.0063

Q: For GTTTGTTATG, which switch fluorescence ratio is on record?
A: 0.999 ± 0.042

Q: How did the switch fluorescence ratio turn out when TTAGTCTTGA was run?
A: 0.9796 ± 0.0028

Q: For CAAATAATGA, which switch fluorescence ratio is on record?
A: 0.9642 ± 0.0036

Q: For GTCAGGGGTG, which switch fluorescence ratio is on record?
A: 1.04 ± 0.052

Q: With GAAGGTATCC as the sequence, how does the switch fluorescence ratio read?
A: 1.02 ± 0.037

Q: How did the switch fluorescence ratio turn out when AATTTGGCAT was run?
A: 1.012 ± 0.0063

Q: CGGCTACGGG was tested. Which switch fluorescence ratio did it give?
A: 0.995 ± 0.046

Q: How did the switch fluorescence ratio turn out when GGCCGAAGCG was run?
A: 1.07 ± 0.049

Q: For TGTTTATTCG, which switch fluorescence ratio is on record?
A: 0.97 ± 0.034

Q: TTAAGTTTTT was tested. Which switch fluorescence ratio did it give?
A: 0.98835 ± 0.00077

Q: For CTAGTGATTG, which switch fluorescence ratio is on record?
A: 0.99358 ± 0.0003

Q: Which switch fluorescence ratio does the source give for TTTGGTGCCG here?
A: 1.17 ± 0.23

Q: Which switch fluorescence ratio does the source give for GGGTTCAGGC here?
A: 1.05 ± 0.059

Q: With GCTTAGGTCA as the sequence, how does the switch fluorescence ratio read?
A: 0.982 ± 0.034

Q: How did the switch fluorescence ratio turn out when TTTTGCCCGA was run?
A: 0.988 ± 0.029

Q: For AAAGAGCAAT, which switch fluorescence ratio is on record?
A: 1.79 ± 1.1

Q: For CCCATGCAAG, which switch fluorescence ratio is on record?
A: 1.3 ± 0.32

Q: How did the switch fluorescence ratio turn out when TTCAGATTAC was run?
A: 1.04 ± 0.024

Q: With CAAGATTGTT as the sequence, how does the switch fluorescence ratio read?
A: 1.02 ± 0.017

Q: How did the switch fluorescence ratio turn out when AAGTGAAGTT was run?
A: 1.002 ± 0.004

Q: For TATAGGTTTG, which switch fluorescence ratio is on record?
A: 1.01 ± 0.042

Q: GTTTTTTGCT was tested. Which switch fluorescence ratio did it give?
A: 0.9809 ± 0.0051

Q: With TCAGACACGG as the sequence, how does the switch fluorescence ratio read?
A: 1.04 ± 0.039

Q: Which switch fluorescence ratio does the source give for TTGTTCCGTT here?
A: 0.9874 ± 0.0066

Q: TCAATTTTTA was tested. Which switch fluorescence ratio did it give?
A: 1.02 ± 0.02

Q: With TCGTGTATGT as the sequence, how does the switch fluorescence ratio read?
A: 1.014 ± 0.0039

Q: Which switch fluorescence ratio does the source give for TCGGGCCTGT here?
A: 1 ± 0.034

Q: For GGGATTTTAA, which switch fluorescence ratio is on record?
A: 0.9753 ± 0.0091

Q: For TCTTTGGACC, which switch fluorescence ratio is on record?
A: 1.04 ± 0.056

Q: TCGGGTAGTT was tested. Which switch fluorescence ratio did it give?
A: 1.04 ± 0.055

Q: With TTTGACGAAT as the sequence, how does the switch fluorescence ratio read?
A: 1.012 ± 0.0081

Q: For GCTTCAGCAA, which switch fluorescence ratio is on record?
A: 1.03 ± 0.055

Q: TCATTGTGGT was tested. Which switch fluorescence ratio did it give?
A: 0.988 ± 0.018

Q: How did the switch fluorescence ratio turn out when TATAAAAGGC was run?
A: 0.978 ± 0.045

Q: Which switch fluorescence ratio does the source give for GGGAAAAGAT here?
A: 0.978 ± 0.042

Q: For GAGCTTGCGT, which switch fluorescence ratio is on record?
A: 1.01 ± 0.025

Q: GGGATAAGCT was tested. Which switch fluorescence ratio did it give?
A: 1.02 ± 0.022

Q: Which switch fluorescence ratio does the source give for AAGGGTCCCG here?
A: 0.9735 ± 0.0027

Q: For GGCCTGGCTA, which switch fluorescence ratio is on record?
A: 0.974 ± 0.02

Q: For TTTCTTATTG, which switch fluorescence ratio is on record?
A: 1.031 ± 0.0085

Q: Which switch fluorescence ratio does the source give for AGAAGGTCGG here?
A: 1.01 ± 0.036

Q: AGGTTTTTGT was tested. Which switch fluorescence ratio did it give?
A: 0.982 ± 0.036

Q: Which switch fluorescence ratio does the source give for GGTGCAGCGG here?
A: 0.982 ± 0.018

Q: Which switch fluorescence ratio does the source give for ATTCAATTGT here?
A: 0.974 ± 0.013

Q: For GGGGGCACGT, which switch fluorescence ratio is on record?
A: 1.017 ± 0.0074

Q: For GGCTTTTGCT, which switch fluorescence ratio is on record?
A: 0.9978 ± 0.0038

Q: Which switch fluorescence ratio does the source give for TTAGGGGCGC here?
A: 0.985 ± 0.014

Q: With GAACTATGTA as the sequence, how does the switch fluorescence ratio read?
A: 1.038 ± 0.01

Q: How did the switch fluorescence ratio turn out when ATTGAATTGT was run?
A: 0.991 ± 0.037

Q: ACGAATTTGT was tested. Which switch fluorescence ratio did it give?
A: 1.03 ± 0.038

Q: With GACGCGAGTT as the sequence, how does the switch fluorescence ratio read?
A: 1.09 ± 0.022

Q: For AGCGTGACTG, which switch fluorescence ratio is on record?
A: 0.987 ± 0.019

Q: With GGGATTGGCT as the sequence, how does the switch fluorescence ratio read?
A: 1.01 ± 0.015

Q: How did the switch fluorescence ratio turn out when CTAGGCAACG was run?
A: 0.982 ± 0.028

Q: Which switch fluorescence ratio does the source give for TTGCTGGTTG here?
A: 1.01 ± 0.03

Q: With AAGAGTGGGG as the sequence, how does the switch fluorescence ratio read?
A: 1.02 ± 0.049

Q: With CACGTCAACT as the sequence, how does the switch fluorescence ratio read?
A: 1.32 ± 0.06

Q: Which switch fluorescence ratio does the source give for GTCTCTTAGG here?
A: 1.01 ± 0.014

Q: GGTTCAGCCT was tested. Which switch fluorescence ratio did it give?
A: 1.01 ± 0.018

Q: How did the switch fluorescence ratio turn out when GGGAATGCGG was run?
A: 0.99 ± 0.03

Q: ATGTTAAATG was tested. Which switch fluorescence ratio did it give?
A: 1 ± 0.016

Q: Which switch fluorescence ratio does the source give for AATTATTGAG here?
A: 1.02 ± 0.038

Q: TGACGGATGG was tested. Which switch fluorescence ratio did it give?
A: 1.03 ± 0.051

Q: How did the switch fluorescence ratio turn out when GAAACTAATG was run?
A: 1.01 ± 0.013

Q: How did the switch fluorescence ratio turn out when CCGGACTCTT was run?
A: 1.11 ± 0.015

Q: For ACTATGAACC, which switch fluorescence ratio is on record?
A: 1.051 ± 0.0016
